The values below are quoted from earlier work in patent US5380646A, “Thrombus detection using radiolabelled disintegrins” (Temple University of the Commonwealth System of Higher …, priority 1992, dated 1995).

This series relates to thrombi. The note with it: literature, in words.

B1: tissue plasminogen activator: plasminogen activator (protein, UniProt P00750 36-562, looked up)
Tissue-type plasminogen …: SYQVICRDEKTQMIYQQHQSWLRPVLRSNRVEYCWCNSGRAQCHSVPVKSCSEPRCFNGGTCQQALYFSDFVCQCPEGFAGKCCEIDTRATCYEDQGISYRGTWSTAESGAECTNWNSSALAQKPYSGRRPDAIRLGLGNHNYCRNPDRDSKPWCYVFKAGKYSSEFCSTPACSEGNSDCYFGNGSAYRGTHSLTESGASCLPWNSMILIGKVYTAQNPSAQALGLGKHNYCRNPDGDAKPWCHVLKNRRLTWEYCDVPSCSTCGLRQYSQPQFRIKGGLFADIASHPWQAAIFAKHRRSPGERFLCGGILISSCWILSAAHCFQERFPPHHLTVILGRTYRVVPGEEEQKFEVEKYIVHKEFDDDTYDNDIALLQLKSDSSRCAQESSVVRTVCLPPADLQLPDWTECELSGYGKHEALSPFYSERLKEAHVRLYPSSRCTSQHLLNRTVTDNMLCAGDTRSGGPQANLHDACQGDSGGPLVCLNDGRMTLVGIISWGLGCGQKDVPGVYTKVTNYLDWIRDNMRP
B1: the “ability to image or detect thrombi” value was “only with marginal success”.
